Our source for the response values is paper PMC6945068.

This assay concerns the target purified 3xFlag-tagged B56γ (Xenopus laevis). Put plainly: pull-down (amylose beads) with immunoblot quantification. The following applies: chain shown with the change, purified Flag-B56γ, 23°C, 30 min, read off a plot. In general terms: Immunoblotting shows a protein as a band on a membrane.

Chain of purified 3xFlag-tagged B56γ (Xenopus laevis) (chain, as listed by the source): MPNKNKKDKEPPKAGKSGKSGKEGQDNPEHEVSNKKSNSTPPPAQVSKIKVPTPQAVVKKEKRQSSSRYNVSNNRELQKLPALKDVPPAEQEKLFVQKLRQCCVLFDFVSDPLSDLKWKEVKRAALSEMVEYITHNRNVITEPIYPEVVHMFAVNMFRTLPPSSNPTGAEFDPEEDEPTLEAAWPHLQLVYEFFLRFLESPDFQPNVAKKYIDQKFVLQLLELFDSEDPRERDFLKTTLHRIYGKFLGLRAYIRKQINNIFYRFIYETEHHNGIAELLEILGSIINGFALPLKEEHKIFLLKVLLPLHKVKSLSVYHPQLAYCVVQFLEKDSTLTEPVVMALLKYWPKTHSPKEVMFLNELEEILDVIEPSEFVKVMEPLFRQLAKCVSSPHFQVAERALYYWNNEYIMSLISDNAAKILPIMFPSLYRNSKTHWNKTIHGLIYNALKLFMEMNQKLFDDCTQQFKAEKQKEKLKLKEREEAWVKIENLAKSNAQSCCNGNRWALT

B1: MBP-fused Apc1-loop^500 wild type (residues 515-584 of Xenopus tropicalis Apc1), Q08D52 T532A; T539A; S558A (protein)
chain: GLAAPSLGMSNPMPRPSAPLESISAPAKPLNKHLAPMDEAGMLAPVPELRDSTRLHESTYLDDCTFHQFG
For the molecule B1, the response was determined as 1.2 A.U (pre-incubated with Cdk2-cyclin A at 30°C for 60 min (+Cdk), parent: est. 5.3) and 1 A.U (without Cdk2-cyclin A pre-incubation, parent: 1.0).
